# B1: Lag3-Myc, full-length (FL), in HEK293FT cells [not stated] / human FLAG-APLP1, full length [human] (parent complex)
# chain 1: GPGKELPVVWAQEGAPVHLPCSLKSPNLDPNFLRRGGVIWQHQPDSGQPTPIPALDLHQGMPSPRQPAPGRYTVLSVAPGGLRSGRQPLHPHVQLEERGLQRGDFSLWLRPALRTDAGEYHATVRLPNRALSCSLRLRVGQASMIASPSGVLKLSDWVLLNCSFSRPDRPVSVHWFQGQNRVPVYNSPRHFLAETFLLLPQVSPLDSGTWGCVLTYRDGFNVSITYNLKVLGLEPVAPLTVYAAEGSRVELPCHLPPGVGTPSLLIAKWTPPGGGPELPVAGKSGNFTLHLEAVGLAQAGTYTCSIHLQGQQLNATVTLAVITVTPKSFGLPGSRGKLLCEVTPASGKERFVWRPLNNLSRSCPGPVLEIQEARLLAERWQCQLYEGQRLLGATVYAAESSSGAHSARRISGDLKGGHLVLVLILGALSLFLLVAGAFGFHWWRKQLLLRRFSALEHGIQPFPAQRKIEELERELETEMGQEPEPEPEPQLEPEPRQL
# chain 2: SLAGGSPGAAEAPGSAQVAGLCGRLTLHRDLRTGRWEPDPQRSRRCLRDPQRVLEYCRQMYPELQIARVEQATQAIPMERWCGGSRSGSCAHPHHQVVPFRCLPGEFVSEALLVPEGCRFLHQERMDQCESSTRRHQEAQEACSSQGLILHGSGMLLPCGSDRFRGVEYVCCPPPGTPDPSGTAVGDPSTRSWPPGSRVEGAEDEEEEESFPQPVDDYFVEPPQAEEEEETVPPPSSHTLAVVGKVTPTPRPTDGVDIYFGMPGEISEHEGFLRAKMDLEERRMRQINEVMREWAMADNQSKNLPKADRQALNEHFQSILQTLEEQVSGERQRLVETHATRVIALINDQRRAALEGFLAALQADPPQAERVLLALRRYLRAEQKEQRHTLRHYQHVAAVDPEKAQQMRFQVHTHLQVIEERVNQSLGLLDQNPHLAQELRPQIQELLHSEHLGPSELEAPAPGGSSEDKGGLQPPDSKDDTPMTLPKGSTEQDAASPEKEKMNPLEQYERKVNASVPRGFPFHSSEIQRDELAPAGTGVSREAVSGLLIMGAGGGSLIVLSMLLLRRKKPYGAISHGVVEVDPMLTLEEQQLRELQRHGYENPTYRFLEERP
# Variants of: B1
# Assay: co-IP (IP: FLAG, blot Myc-Lag3), band intensity quantified; read off a plot
row,Variant,response [AU]
1,"chain 2 L25A, chain 2 T26A, chain 2 H28A, chain 2 D30A, chain 2 C46A, chain 2 L47A, chain 2 Q71A, chain 2 T73A, chain 2 I76A",~20
